US20240158497A1 (published 2024)

B1: bsAb19146D (bispecific antibody, V domains shown)
VH 1: QVQLVESGGGVVQPGRSLRLSCTASGFTFSSYAMYWVRQAPGKGLEWVSVIYYDGSYKYYADSVKGRFTISRDNSKNTLYLQMDSLRAEDTAVYYCASYNWNYWYFDFWGRGTLVTVSS
VH 2: QVQLVQSGPEVKKPGSSVKVSCKASGGTIDRNEITWVRQAPGQGLEWMGVIIPILGEAHYERKFQGRLTITMDESTSTAYMELSNLRSEDTAVYYCARERAARGYLDYWGQGTLVTVSS
VL: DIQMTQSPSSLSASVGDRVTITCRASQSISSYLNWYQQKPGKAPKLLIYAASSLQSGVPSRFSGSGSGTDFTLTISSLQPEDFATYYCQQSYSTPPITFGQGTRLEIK
notes: common light chain
B2: bsAb19152D (bispecific antibody, V domains shown)
VH 1: QVQLVESGGGVVQPGRSLRLSCTASGFTFSSYAMYWVRQAPGKGLEWVSVIYYDGSYKYYADSVKGRFTISRDNSKNTLYLQMDSLRAEDTAVYYCASYNWNYWYFDFWGRGTLVTVSS
VH 2: EVQLVQSGAEVKKPGESLKISCKGSGYSFTSYWIDWVRQMPGKGLEWMGIIYPDDSDTRYSPSFQGQVTMSVDKSISTAYLQWSSLKASDTAIYYCARHERGIVEAGTDYYYYYGMDVWGQGTTVTVSS
VL: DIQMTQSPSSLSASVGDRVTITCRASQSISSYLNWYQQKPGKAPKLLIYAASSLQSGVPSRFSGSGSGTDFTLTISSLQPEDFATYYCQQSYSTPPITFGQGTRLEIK
notes: common light chain
B3: bsAb19150D (bispecific antibody, V domains shown)
VH 1: QVQLVESGGGVVQPGRSLRLSCTASGFTFSSYAMYWVRQAPGKGLEWVSVIYYDGSYKYYADSVKGRFTISRDNSKNTLYLQMDSLRAEDTAVYYCASYNWNYWYFDFWGRGTLVTVSS
VH 2: EVQLVESGGGLVQSGGSLRLSCAASGFTFSRYEMNWVRQAPGKGLEWVAYISNTGTTRDYSDSVKGRFTISRDNAKNSLYLQMSSLRVEDTAVYYCVREKFSGTSDWFDPWGQGTLVTVSS
VL: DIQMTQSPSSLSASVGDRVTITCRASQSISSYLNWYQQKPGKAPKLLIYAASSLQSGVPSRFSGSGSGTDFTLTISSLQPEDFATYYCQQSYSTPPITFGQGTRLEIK
notes: common light chain
B4: bsAb19151D (bispecific antibody, V domains shown)
VH 1: QVQLVESGGGVVQPGRSLRLSCTASGFTFSSYAMYWVRQAPGKGLEWVSVIYYDGSYKYYADSVKGRFTISRDNSKNTLYLQMDSLRAEDTAVYYCASYNWNYWYFDFWGRGTLVTVSS
VH 2: EVQLVESGGGLVQPGGSLRLSCAASGFTFSSYAMNWVRQAPGKGLEWVSAISGSGDSTYYTDSVKGRFTISRDNSKNTLYLQMNTLRAEDTAVYYCAKEEIVMLVGATPGWFDPWGQGTLVTVSS
VL: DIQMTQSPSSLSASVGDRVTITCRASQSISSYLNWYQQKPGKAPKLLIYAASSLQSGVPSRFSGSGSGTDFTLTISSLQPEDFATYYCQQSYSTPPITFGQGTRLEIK
notes: common light chain
B5: bsAb19149D (bispecific antibody, V domains shown)
VH 1: QVQLVESGGGVVQPGRSLRLSCTASGFTFSSYAMYWVRQAPGKGLEWVSVIYYDGSYKYYADSVKGRFTISRDNSKNTLYLQMDSLRAEDTAVYYCASYNWNYWYFDFWGRGTLVTVSS
VH 2: QVQLVESGGGVVQPGRSLRLACAASGFTFRSYGMHWVRQAPGKGLEWVAVIWYDGSNKYYTDSVKGRFTISRDNSKNTLYLQMNSLRAEDTAMYYCAIDKWATVTTYLFDYWGQGTLVTVSS
VL: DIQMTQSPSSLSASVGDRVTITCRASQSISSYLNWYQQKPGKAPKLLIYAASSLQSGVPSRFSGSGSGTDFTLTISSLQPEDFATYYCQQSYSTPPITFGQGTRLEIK
notes: common light chain
B6: bsAb19147D (bispecific antibody, V domains shown)
VH 1: QVQLVESGGGVVQPGRSLRLSCTASGFTFSSYAMYWVRQAPGKGLEWVSVIYYDGSYKYYADSVKGRFTISRDNSKNTLYLQMDSLRAEDTAVYYCASYNWNYWYFDFWGRGTLVTVSS
VH 2: EVQLVESGGGLVQPGGSLRLSCTASGFTFSNYAIFWVRQAPGKGLEYVSGISNNGVTKYYADSVRDRFTISRDNSRNTVSIQMDSLRTEDMAVYYCARENWGSDDGFDIWGQGTMVTVSS
VL: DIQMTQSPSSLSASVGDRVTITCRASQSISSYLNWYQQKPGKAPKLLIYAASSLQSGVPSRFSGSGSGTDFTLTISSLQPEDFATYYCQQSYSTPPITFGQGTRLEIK
notes: common light chain
B7: bsAb19148D (bispecific antibody, V domains shown)
VH 1: QVQLVESGGGVVQPGRSLRLSCTASGFTFSSYAMYWVRQAPGKGLEWVSVIYYDGSYKYYADSVKGRFTISRDNSKNTLYLQMDSLRAEDTAVYYCASYNWNYWYFDFWGRGTLVTVSS
VH 2: QVQLVQSGTEVKKPGSSVKVSCKASGGTFSTYPINWVRQAPGQGLEWMGGIIPIFGTASYAQKFQGRVAITTDESTSTAYMELNSLRSEDTAVYYCARERPNWGSNDYWGQGTLVTVSS
VL: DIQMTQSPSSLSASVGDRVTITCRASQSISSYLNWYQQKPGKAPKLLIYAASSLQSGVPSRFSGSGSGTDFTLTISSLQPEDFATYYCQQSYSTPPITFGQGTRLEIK
notes: common light chain

Columns and labels:
[1] = molecular target: T1, human LEPR extracellular domain expressed with a C-terminal myc-myc-hexahistidine tag (human, UniProt P48357 22-839); test: SPR Biacore 4000, bsAb captured by anti-human Fc, 25 C
T1 construct: Monomeric reagent; the whole entry is the construct with its tag; also called hLEPR-MMH; hLEPR.mmh
Protocol: (§1) Equilibrium dissociation constants (KD values) for LEPR and GP130 binding to purified anti-LEPR/GP130 bispecific antibodies were determined using a real-time surface plasmon resonance biosensor using a Biacore 4000 instrument. All binding studies were performed in 10 mM HEPES, 150 mM NaCl, 3 mM EDTA, and 0.05% v/v Surfactant Tween-20, pH 7.4 (HBS-ET) running buffer at 25° C. and 37° C. The Biacore sensor surface was first derivatized by amine coupling with a monoclonal mouse anti-human Fc antibody (GE, #BR-1008-39) to capture anti-LEPR/GP130 bispecific antibodies. […] Different concentrations of LEPR or GP130 reagents were first prepared in HBS-ET running buffer (100 nM-3.7 nM; 3-fold serial dilution) and were injected over anti-human Fc captured anti-LEPR/GP130 bispecific antibody surface for 4 minutes at a flow rate of 30 μL/minute, while the dissociation of bispecific antibody bound LEPR or GP130 reagent was monitored for 10 minutes in HBS-ET running buffer. Kinetic association (kₐ) and dissociation (kd) rate constants were determined by fitting the real-time binding sensorgrams to a 1:1 binding model with mass transport limitation using Scrubber 2.0c curve-fitting software. Binding dissociation equilibrium constants (KD) and dissociative half-lives (t ½) were calculated from the kinetic rate constants as: […]

[2] = molecular target: T2, Macaca Fascicularis LEPR extracellular domain expressed with a C-terminal myc-myc-hexahistidine tag (Macaca fascicularis, UniProt Q9MYL0 22-837 (rhesus entry)); test: as above
T2 construct: Monomeric reagent; the whole entry is the construct with its tag; also called mfLEPR-MMH
Protocol: as §1

[3] = molecular target: T1, human LEPR extracellular domain …; test: SPR Biacore 4000, bsAb captured by anti-human Fc, 37 C
Protocol: as §1

[4] = molecular target: T2, Macaca Fascicularis LEPR extracellular …; test: as above
Protocol: as §1

T2 sequence (Q9MYL0 other isoform, or with tags, fused parts or gaps): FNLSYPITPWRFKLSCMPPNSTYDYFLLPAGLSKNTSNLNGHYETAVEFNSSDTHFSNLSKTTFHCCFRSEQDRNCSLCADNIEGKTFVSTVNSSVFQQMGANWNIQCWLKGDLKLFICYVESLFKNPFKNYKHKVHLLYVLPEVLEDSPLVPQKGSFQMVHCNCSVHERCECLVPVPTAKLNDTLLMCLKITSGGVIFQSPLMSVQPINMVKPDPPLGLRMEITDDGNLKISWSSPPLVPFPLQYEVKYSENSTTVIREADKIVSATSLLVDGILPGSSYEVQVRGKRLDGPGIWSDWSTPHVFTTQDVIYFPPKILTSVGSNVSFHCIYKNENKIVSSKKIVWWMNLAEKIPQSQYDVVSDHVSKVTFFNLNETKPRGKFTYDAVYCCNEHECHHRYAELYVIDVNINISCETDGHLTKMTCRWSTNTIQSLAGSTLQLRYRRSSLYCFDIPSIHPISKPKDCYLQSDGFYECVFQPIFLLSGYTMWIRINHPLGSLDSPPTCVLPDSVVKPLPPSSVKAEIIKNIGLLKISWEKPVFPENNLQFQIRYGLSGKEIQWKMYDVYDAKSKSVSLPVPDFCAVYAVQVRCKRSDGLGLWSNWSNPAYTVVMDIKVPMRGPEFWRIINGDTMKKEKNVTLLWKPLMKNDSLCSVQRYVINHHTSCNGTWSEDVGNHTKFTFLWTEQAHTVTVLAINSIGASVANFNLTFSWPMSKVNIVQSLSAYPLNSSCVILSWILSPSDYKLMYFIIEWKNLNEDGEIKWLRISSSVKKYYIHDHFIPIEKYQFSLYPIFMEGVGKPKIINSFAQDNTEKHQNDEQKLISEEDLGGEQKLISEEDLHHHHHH
T1 sequence (P48357 other isoform, or with tags, fused parts or gaps): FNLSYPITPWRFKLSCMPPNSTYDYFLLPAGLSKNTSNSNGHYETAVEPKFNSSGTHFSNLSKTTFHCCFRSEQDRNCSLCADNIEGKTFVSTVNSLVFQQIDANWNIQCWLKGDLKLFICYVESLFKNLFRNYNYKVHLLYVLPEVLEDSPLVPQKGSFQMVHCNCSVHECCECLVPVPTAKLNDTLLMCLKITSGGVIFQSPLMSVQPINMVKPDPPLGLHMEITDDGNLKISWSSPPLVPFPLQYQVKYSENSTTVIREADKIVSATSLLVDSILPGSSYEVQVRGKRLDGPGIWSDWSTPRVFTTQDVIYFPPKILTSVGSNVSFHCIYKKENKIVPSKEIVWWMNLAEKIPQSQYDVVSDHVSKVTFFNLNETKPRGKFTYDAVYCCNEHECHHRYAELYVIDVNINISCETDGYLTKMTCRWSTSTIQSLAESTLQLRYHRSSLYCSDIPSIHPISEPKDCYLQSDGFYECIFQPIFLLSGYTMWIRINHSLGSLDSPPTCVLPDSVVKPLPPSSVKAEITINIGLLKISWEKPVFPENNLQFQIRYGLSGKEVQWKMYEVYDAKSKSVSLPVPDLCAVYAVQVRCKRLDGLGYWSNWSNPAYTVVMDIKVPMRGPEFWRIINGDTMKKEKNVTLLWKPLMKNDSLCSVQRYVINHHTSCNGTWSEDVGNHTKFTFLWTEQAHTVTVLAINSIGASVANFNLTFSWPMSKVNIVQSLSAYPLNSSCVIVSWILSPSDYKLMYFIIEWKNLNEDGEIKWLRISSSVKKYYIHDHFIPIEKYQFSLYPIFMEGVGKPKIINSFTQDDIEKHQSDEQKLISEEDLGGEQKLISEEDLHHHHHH

Binder	100 nM hLEPR-MMH Bound (RU) [1] [RU]	Kd [1] [nM]	koff [1] [s⁻¹]	kon [1] [M⁻¹ s⁻¹]	t½ [1] [min]	100 nM mfLEPR-MMH Bound (RU) [2] [RU]	Kd [2] [nM]	koff [2] [s⁻¹]	kon [2] [M⁻¹ s⁻¹]	t½ [2] [min]	100 nM hLEPR-MMH Bound (RU) [3] [RU]	Kd [3] [nM]	koff [3] [s⁻¹]	kon [3] [M⁻¹ s⁻¹]	t½ [3] [min]	100 nM mfLEPR-MMH Bound (RU) [4] [RU]	Kd [4] [nM]	koff [4] [s⁻¹]	kon [4] [M⁻¹ s⁻¹]	t½ [4] [min]
B1	45	8.16	0.000179	22000	64	107	2.63	0.000113	42900	102	69	21.3	0.000825	38700	14	164	5.68	0.000568	100000	20
B2	47	6.75	0.000165	24500	70	113	2.97	0.000124	41800	93	74	20.8	0.000787	37700	15	169	5.9	0.000589	99900	20
B3	41	7.35	0.000176	24000	66	102	2.79	0.000117	41800	99	63	19.5	0.000691	35500	17	158	5.25	0.000519	98900	22
B4	46	7.49	0.000158	21100	73	109	2.74	0.000117	42500	99	70	18.3	0.00076	41400	15	167	5.3	0.000554	105000	21
B5	36	7.16	0.000194	27100	60	96	2.65	0.000111	41900	104	61	18.4	0.000622	33800	19	154	8.09	0.000506	62500	23
B6	42	7.13	0.000162	22700	71	107	2.8	0.000119	42500	97	65	20.5	0.000791	38500	15	163	5.64	0.000565	100000	20
B7	44	7.31	0.000172	23600	67	107	2.88	0.000119	41300	97	69	20.5	0.000798	39000	14	163	6.17	0.000571	92500	20
